Measured values: patent US6476188 (ROCKEFELLER UNIVERSITY, dated 2002)

T1: GST-PER 530-640 fusion protein (Drosophila, UniProt P07663 530-640)
T1 construct: range 530-640; Constructed as described in Saez and Young 1996 (cited); Immobilized on glutathione agarose beads; also called aa 530-640 of PER; not shown: Glutathione-S-transferase (GST) fusion partner
T1 sequence (looked up): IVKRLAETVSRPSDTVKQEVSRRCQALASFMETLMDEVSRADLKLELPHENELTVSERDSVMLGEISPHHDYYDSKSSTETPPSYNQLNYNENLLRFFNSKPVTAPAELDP


Experiments:
[1] = biological target: mouse PERIOD2 (mPER2), in vitro translated, 35S-methionine-labeled (mouse, UniProt O54943 1-1257, limits assumed); experiment: in vitro binding, S-agarose-bound recombinant CK1ε with 35S-labeled in vitro translated mPER2
Chain of mouse PERIOD2 (mPER2), in vitro translated, 35S-methionine-labeled (O54943 whole entry): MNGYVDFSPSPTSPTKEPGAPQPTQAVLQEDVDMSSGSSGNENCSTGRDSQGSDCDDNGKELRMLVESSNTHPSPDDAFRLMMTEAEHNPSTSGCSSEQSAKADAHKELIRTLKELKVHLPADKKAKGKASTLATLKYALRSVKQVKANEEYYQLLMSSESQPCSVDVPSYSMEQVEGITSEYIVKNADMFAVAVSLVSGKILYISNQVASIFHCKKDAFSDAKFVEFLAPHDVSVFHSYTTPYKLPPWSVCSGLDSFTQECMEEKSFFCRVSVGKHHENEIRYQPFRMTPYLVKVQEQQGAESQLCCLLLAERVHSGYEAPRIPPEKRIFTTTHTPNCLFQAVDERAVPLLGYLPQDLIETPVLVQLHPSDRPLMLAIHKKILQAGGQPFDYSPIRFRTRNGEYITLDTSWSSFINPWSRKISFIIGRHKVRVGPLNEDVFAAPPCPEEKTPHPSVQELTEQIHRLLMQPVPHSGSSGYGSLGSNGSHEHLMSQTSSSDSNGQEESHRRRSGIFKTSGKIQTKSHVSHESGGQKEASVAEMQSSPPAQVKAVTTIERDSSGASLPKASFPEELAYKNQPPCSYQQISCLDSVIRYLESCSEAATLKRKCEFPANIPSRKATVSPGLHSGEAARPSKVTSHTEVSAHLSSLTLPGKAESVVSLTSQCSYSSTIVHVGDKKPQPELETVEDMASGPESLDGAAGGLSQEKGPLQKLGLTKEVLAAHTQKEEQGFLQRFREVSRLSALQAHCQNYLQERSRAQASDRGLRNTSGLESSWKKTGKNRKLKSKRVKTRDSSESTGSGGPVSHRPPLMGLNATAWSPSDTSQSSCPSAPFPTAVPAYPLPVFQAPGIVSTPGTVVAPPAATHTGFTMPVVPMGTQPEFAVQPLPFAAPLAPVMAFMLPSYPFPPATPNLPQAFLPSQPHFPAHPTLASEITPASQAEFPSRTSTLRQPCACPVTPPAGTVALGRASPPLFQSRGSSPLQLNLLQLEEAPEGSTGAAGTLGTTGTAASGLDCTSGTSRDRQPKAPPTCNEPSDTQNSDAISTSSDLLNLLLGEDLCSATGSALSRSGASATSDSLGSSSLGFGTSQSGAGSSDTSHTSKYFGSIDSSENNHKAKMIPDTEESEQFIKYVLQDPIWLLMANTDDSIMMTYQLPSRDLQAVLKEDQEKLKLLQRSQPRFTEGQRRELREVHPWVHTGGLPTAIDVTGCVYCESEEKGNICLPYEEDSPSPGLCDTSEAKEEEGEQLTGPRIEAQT
Procedure: (§1) Half of the bound beads were then added to a kinase reaction as described above and in Example 3 below, but without c-casein or phosvitin, and incubated at 37° C. for 5 minutes. […] Reactions were separated on 12% SDS-PAGE gels, dried and exposed to phosphor screens. Following exposure to detect both the ^35S and ^32P signals, dried gels were covered with two layers of exposed X-OMAT film to block the ^35S signal. […] PER signal is indicated by filled triangles.
(§2) Per binding studies: For binding assays, mPER1 and mPER2 were synthesized from cDNAs cloned in plasmids by coupled in vitro transcription/translation reactions using ^35S-methionine in a total reaction volume of 50 μl (TNT T7 Coupled Reticulocyte Lysate System, Promega). Recombinant CK1ε was purified from *E. coli* by capture on S-agarose beads as described above. To reduce non-specific binding, 20 μl of in vitro-translated product was mixed with 50 μl of plain S-agarose beads in HND buffer (20 mM HEPES, pH 7.5, 100 mM KCl, 10% glycerol, 0.4% NP40, 1 mM DTT) with 5% BSA. This mixture was incubated at room temperature with shaking for 1 hour. Following incubation, the mixture was centrifuged at 2500 rpm for 5 minutes and the resulting supernatant was divided into two equal aliquots. […]

[2] = biological target: mouse PERIOD1 (mPER1), in vitro translated, 35S-methionine-labeled (mouse, UniProt O35973 1-1291, limits assumed); experiment: in vitro binding, S-agarose-bound recombinant CK1ε with 35S-labeled in vitro translated mPER1
Chain of mouse PERIOD1 (mPER1), in vitro translated, 35S-methionine-labeled (O35973 whole entry): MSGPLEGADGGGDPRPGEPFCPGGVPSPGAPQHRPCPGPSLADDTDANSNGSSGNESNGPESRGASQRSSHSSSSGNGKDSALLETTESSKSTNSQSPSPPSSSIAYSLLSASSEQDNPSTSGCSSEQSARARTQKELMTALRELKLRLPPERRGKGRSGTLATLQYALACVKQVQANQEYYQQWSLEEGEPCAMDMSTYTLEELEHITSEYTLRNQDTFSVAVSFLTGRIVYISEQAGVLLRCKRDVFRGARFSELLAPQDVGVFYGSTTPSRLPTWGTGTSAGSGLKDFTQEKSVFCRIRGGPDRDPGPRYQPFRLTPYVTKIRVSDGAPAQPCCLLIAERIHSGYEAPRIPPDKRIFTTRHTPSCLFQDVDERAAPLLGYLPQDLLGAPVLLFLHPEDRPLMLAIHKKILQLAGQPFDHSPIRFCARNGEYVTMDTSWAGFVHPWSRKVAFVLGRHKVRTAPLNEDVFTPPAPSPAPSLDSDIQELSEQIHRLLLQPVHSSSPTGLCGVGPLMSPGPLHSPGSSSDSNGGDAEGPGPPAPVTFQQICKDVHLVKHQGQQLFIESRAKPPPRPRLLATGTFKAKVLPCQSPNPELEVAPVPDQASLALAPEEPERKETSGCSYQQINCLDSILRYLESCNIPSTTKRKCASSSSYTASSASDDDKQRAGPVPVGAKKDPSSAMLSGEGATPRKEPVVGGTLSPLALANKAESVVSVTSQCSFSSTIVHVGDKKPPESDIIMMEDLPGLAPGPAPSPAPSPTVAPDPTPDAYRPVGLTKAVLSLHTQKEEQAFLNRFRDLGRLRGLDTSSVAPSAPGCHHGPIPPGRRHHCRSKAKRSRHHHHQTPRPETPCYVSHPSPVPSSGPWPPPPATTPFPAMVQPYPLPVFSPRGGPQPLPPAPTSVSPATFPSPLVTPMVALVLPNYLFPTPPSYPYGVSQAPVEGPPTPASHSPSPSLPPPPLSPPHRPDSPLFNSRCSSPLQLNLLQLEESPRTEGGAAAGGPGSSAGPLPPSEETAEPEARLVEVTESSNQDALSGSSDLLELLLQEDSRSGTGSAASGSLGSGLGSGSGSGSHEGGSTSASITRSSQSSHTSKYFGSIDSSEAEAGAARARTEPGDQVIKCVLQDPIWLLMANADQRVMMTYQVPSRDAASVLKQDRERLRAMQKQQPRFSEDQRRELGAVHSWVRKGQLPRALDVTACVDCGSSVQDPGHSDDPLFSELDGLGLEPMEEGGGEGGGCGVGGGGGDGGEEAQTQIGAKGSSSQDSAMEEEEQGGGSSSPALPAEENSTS
Procedure: as §1, §2

[3] = biological target: T2, GST (Glutathione-S-transferase) alone (UniProt P08515 1-218 = GST); experiment: GST pull-down, 35S-labeled in vitro translated DBT, SDS-PAGE and autoradiography
T2 construct: Control in the pull-down assay
T2 sequence (P08515 whole entry): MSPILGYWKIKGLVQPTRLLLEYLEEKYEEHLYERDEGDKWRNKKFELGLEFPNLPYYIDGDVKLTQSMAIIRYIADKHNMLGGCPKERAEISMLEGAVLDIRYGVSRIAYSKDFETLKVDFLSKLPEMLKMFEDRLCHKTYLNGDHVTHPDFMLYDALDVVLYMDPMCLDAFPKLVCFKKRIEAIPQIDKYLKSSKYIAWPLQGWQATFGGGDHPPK
Excerpt: (§3) The staining confirms that similar amounts of GST and GST-PER fusion proteins were used in the assay. Arrow indicates BSA present in all the washes. (Right) GST alone and the indicated GST-PER fusions were used to bind in vitro translated, ^35S-labeled DBT protein. Labeled DBT proteins that bound to the indicated GST-PER fusions were visualized by SDS-PAGE and autoradiography. […] For hs-gfp-dbt, GFP was fused to the amino terminus of DBT.

[4] = biological target: T1, GST-PER 530-640 fusion protein; experiment: as above
Excerpt: as §3

Row | Binder | binding result [1] | binding result [2] | binding result [3] | binding result [4]
1 | recombinant wild-type hamster CK1ε with N-terminal S•Tag and His-Tag fusions, captured on S-protein agarose (enzyme, Full-length cDNA expressed in E. coli BL21(DE3)pLysS; The preparation holds both autophosphorylated and unphosphorylated forms; also called wild-type CK1ε; WT; not shown: N-terminal S•Tag (15 amino acids) and His-Tag fusion from the pET-30 LIC vector) MELRVGNKYRLGRKIGSGSFGDIYLGANIASGEEVAIKLECVKTKHPQLHIESKFYKMMQGGVGIPSIKWCGAEGDYNVMVMELLGPSLEDLFNFCSRKFSLKTVLLLADQMISRIEYIHSKNFIHRDVKPDNFLMGLGKKGNLVYIIDFGLAKKYRDARTHQHIPYRENKNLTGTARYASINTHLGIEQSRRDDLESLGYVLMYFNLGSLPWQGLKAATKRQKYERISEKKMSTPIEVLCKGYPSEFSTYLNFCRSLRFDDKPDYSYLRQLFRNLFHRQGFSYDYVFDWNMLKFGAARNPEDVDRERREHEREERMGQLRGSATRALPPGPPTGATANRLRSAAEPVASTPASRIQQAGNTSPRAISRADRERKVSMRLHRGAPANVSSSDLTGRQEVSRISASQTSVPFDHLGK | binds | binds |  | 
2 | recombinant tau mutant hamster CK1ε (Arg178Cys) with N-terminal S•Tag and His-Tag fusions, captured on S-protein agarose (enzyme, Full-length tau cDNA expressed in E. coli; Arg #178 of the wild-type protein is replaced by cysteine; also called tau CK1ε; tau mutant enzyme; not shown: N-terminal S•Tag (15 amino acids) and His-Tag fusion from the pET-30 LIC vector) MELRVGNKYRLGRKIGSGSFGDIYLGANIASGEEVAIKLECVKTKHPQLHIESKFYKMMQGGVGIPSIKWCGAEGDYNVMVMELLGPSLEDLFNFCSRKFSLKTVLLLADQMISRIEYIHSKNFIHRDVKPDNFLMGLGKKGNLVYIIDFGLAKKYRDARTHQHIPYRENKNLTGTACYASINTHLGIEQSRRDDLESLGYVLMYFNLGSLPWQGLKAATKRQKYERISEKKMSTPIEVLCKGYPSEFSTYLNFCRSLRFDDKPDYSYLRQLFRNLFHRQGFSYDYVFDWNMLKFGAARNPEDVDRERREHEREERMGQLRGSATRALPPGPPTGATANRLRSAAEPVASTPASRIQQAGNTSPRAISRADRERKVSMRLHRGAPANVSSSDLTGRQEVSRISASQTSVPFDHLGK | binds | binds |  | 
3 | DOUBLETIME protein (DBT), Drosophila, in vitro translated from dbt cDNA P12, 35S-labeled (enzyme, In vitro translated, 35S-labeled; about 46 kDa by SDS-PAGE; the open reading frame predicts 440 aa; also called Drosophila CK1ε) MELRVGNKYRLGRKIGSGSFGDIYLGTTINTGEEVAIKLECIRTKHPQLHIESKFYKTMQGGIGIPRIIWCGSEGDYNVMVMELLGPSLEDLFNFCSRRFSLKTVLLLADQMISRIDYIHSRDFIHRDIKPDNFLMGLGKKGNLVYIIDFGLAKKFRDARSLKHIPYRENKNLTGTARYASINTHLGIEQSRRDDLESLGYVLMYFNLGALPWQGLKAANKRQKYERISEKKLSTSIVVLCKGFPSEFVNYLNFCRQMHFDQRPDYCHLRKLFRNLFHRLGFTYDYVFDWNLLKFGGPRNPQAIQQAQDGADGQAGHDAVAAAAAVAAAAAASSHQQQQHKVNAALGGGGGSRAQQQLQGGQTLAMLGGNGGGNGSQLIGGNGLNMDDSMAATNSSRPPYDTPERRPSIRMRQGGGGGGGGVGVGGMQSGGGGGGVGNAK |  |  | no binding | no binding
